In PMC7865296, “T Cell Mediated Conversion of a Non-Anti-La Reactive B Cell to an Autoreactive Anti-La B Cell by Somatic Hypermutation †” (International Journal of Molecular Sciences, 2021):
Residue numbers refer to the chain shown, from its start. Values belong to the binder of their own block, whether it stands above or below them.

How the values were obtained:
[1] = biological target: T1, GFP-La fusion protein La_(10–100) (Homo sapiens (Human)., UniProt P05455); assay: SDS-PAGE and immunoblotting; total extracts of HeLa cells transfected with GFP-La fusion constructs (N- or C-terminally truncated La); probed with anti-La mabs; anti-GFP as control; details: partners not purified
T1 construct: human La protein, residues 10-100 (La motif region); cloned into pEGFP-C2; pEGFP-C2 places GFP at the N-terminus of the insert (surmise); also called final La deletion mutant of Group 2; source: HeLa, transfected, in total extract

[2] = biological target: T2, eukaryotic human La protein of HeLa cells (Homo sapiens (Human)., UniProt P05455); assay: SDS-PAGE and immunoblotting; total extracts of human HeLa or mouse 3T3 cells, denatured on the blot; probed with hybridoma supernatants; details: partners not purified
T2 construct: human La/SS-B autoantigen, endogenous in HeLa cells; also called hLa; source: endogenous, HeLa total extract; endogenous, fixed HeLa cells

[3] = biological target: T3, recombinant human La protein, full length (aa 1-408), His-tagged (Homo sapiens (Human)., UniProt P05455); assay: SDS-PAGE and immunoblotting; human (rhLa) or mouse (rmLa) La protein recombinantly expressed in E. coli, denatured on the blot; probed with hybridoma supernatants; details: one partner purified
T3 construct: also called rhLa; hLa; not shown: His tag, C-terminal, kept

[4] = biological target: T4, recombinant mouse La protein (Mus musculus (Mouse)., UniProt P32067); assay: as above; details: one partner purified
T4 construct: mouse La protein, open reading frame cloned into pET28b; also called rmLa; mLa (recombinant)

[5] = biological target: T3, recombinant human La protein, full …; assay: SDS-PAGE and immunoblotting; recombinant human La (rhLa) on the blot; probed with purified recombinant 312B Ig4 or 312B ge Ig4; details: both partners purified
[6] = biological target: T5, GFP-La fusion protein La_(107–200) (Homo sapiens (Human)., UniProt P05455); assay: SDS-PAGE and immunoblotting; total extracts of HeLa cells transfected with GFP-La fusion constructs (N- or C-terminally truncated La); probed with anti-La mabs; anti-GFP as control; details: partners not purified
T5 construct: cloned into pEGFP-C2; pEGFP-C2 places GFP at the N-terminus of the insert (surmise); also called final La deletion mutant of Group 1; source: HeLa, transfected, in total extract

[7] = biological target: T6, Ro60 antigen (Homo sapiens (assumed), UniProt P10155); assay: ELISA; hybridoma supernatants on Ro60 antigen; performed as in ref. 59
T6 construct: Ro60 (Ro/SS-A) antigen used in the anti-Ro ELISA; also called Ro/SS-A

[8] = biological target: T7, His-tagged La deletion mutant La_(278–408) (Homo sapiens (Human)., UniProt P05455); assay: SDS-PAGE and immunoblotting; His-tagged full length La and N- and C-terminally truncated La deletion mutants from E. coli (nickel-NTA); probed with 16C; 10-fold the usual amount of protein applied; details: one partner purified
T7 construct: cloned into pET28a
T7 sequence (P05455 278-408, stated change not applied): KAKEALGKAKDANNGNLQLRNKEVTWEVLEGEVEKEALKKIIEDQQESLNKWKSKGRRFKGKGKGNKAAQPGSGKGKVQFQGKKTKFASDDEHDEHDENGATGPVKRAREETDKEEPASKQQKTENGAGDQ

T3 sequence (P05455 whole entry, the tested form may be a part): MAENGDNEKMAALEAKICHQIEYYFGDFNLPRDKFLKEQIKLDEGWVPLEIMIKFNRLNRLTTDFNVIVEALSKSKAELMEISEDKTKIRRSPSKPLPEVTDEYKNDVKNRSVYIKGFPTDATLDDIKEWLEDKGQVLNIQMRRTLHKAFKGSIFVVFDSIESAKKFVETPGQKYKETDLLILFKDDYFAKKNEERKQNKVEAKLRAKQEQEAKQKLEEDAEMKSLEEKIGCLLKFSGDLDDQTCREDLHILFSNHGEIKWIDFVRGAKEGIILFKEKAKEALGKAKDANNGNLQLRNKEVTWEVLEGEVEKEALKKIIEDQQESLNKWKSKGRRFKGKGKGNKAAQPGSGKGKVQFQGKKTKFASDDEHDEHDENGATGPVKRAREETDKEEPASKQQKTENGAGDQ
T1 sequence (P05455 10-100): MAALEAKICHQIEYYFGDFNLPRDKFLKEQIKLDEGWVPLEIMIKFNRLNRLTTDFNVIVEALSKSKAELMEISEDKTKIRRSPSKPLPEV
T5 sequence (P05455 107-200): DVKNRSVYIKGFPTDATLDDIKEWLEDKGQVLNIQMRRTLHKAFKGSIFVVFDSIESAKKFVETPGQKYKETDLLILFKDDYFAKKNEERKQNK
T2 sequence (P05455 whole entry): as the sequence (P05455 whole entry, the tested form may be a part) above
T6 sequence (P10155 whole entry): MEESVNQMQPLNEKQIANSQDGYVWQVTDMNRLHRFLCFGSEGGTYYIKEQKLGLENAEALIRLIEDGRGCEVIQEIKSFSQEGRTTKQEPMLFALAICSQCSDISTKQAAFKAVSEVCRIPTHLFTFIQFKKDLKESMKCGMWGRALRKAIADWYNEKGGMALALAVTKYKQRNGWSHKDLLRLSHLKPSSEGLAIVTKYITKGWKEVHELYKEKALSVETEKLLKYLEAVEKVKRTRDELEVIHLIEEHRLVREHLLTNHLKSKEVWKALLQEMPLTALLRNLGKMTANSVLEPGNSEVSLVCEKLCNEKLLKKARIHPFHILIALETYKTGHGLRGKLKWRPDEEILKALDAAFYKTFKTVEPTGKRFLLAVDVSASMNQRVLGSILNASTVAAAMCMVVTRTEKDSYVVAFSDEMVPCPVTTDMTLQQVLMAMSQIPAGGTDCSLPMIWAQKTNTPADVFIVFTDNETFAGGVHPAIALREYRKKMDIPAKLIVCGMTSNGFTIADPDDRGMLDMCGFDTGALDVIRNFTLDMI
T4 sequence (P32067 whole entry): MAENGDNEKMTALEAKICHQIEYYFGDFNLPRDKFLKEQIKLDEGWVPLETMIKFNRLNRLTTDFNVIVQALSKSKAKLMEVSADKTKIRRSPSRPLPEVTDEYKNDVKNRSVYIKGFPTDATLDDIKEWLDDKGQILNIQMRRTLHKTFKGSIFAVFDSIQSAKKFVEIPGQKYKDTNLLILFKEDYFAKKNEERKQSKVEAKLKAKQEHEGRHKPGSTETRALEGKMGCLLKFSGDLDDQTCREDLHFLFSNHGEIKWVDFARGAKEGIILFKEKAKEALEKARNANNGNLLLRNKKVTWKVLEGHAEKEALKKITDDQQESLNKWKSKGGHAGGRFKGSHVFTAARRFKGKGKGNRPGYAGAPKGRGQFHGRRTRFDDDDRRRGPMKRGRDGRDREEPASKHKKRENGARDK

- binding result [5]: no binding
B6: recombinant antibody based on the germline 312B sequence (scFv fused on a human IgG4 hinge and Fc) (Fc fusion, mouse)
VH: QVQLQQSGAELMKPGASVKLSCKATGYTFTGYWIEWVKQRPGHGLEWIGEILPGSGSTNYNEKFKGKATFTADTSSNTAYMQLSSLTTEDSAIYYCARSRSIYDGYFDYWGQGTTLTVSS
VL: DIQMTQSPASLSASVGETVTITCRASENIYSYLAWYQQKQGKSPQLLVYNAKTLAEGVPSRFSGSGSGTQFSLKINSLQPEDFGSYYCQHHYGTPYTFGGGTKLEIK
notes: linker, printed as (Gly4Ser)3; VH-VL orientation; an Igkappa leader peptide was fused to the N-terminus for secretion; vector p6NST50; source: stably transduced 3T3 cell line, purified from cell culture supernatant (protein A); not shown: hinge and Fc (CH2-CH3) of human IgG4, C-terminal, kept

- binding result [7]: binds
- binding result [3]: no binding
B8: IgM type anti-Ro60 monoclonal antibody 312G (antibody, V domains shown)
VH: EVQLEESGPGLVAPSQSLSITCTVSGFSLSRYSVHWVRQPPGKGLEWLGMIWGGGSTDYNSALKSRLSISKDNSKSQVFLKMNSLQTDDTAIYYCATSNWPYAMDYWGQGTSVTVSS
VL: DIVMTQSPAIMSASPGEKVTMTCSASSSVSYMHWYQQKSGTSPKRWIYDTSKLASGVPARFSGSGSGTSYSLTISSMEAEDAATYYCQQWSSNPPTFGAGTKLELK
notes: variable heavy chain of 312G; variable light chain of 312G; IgM; Vl kk4, JK5; From the human La transgenic mouse; called polyreactive; also called anti-Ro mab (312G); anti-Ro60 mab; source: hybridoma cell culture supernatant

- binding result [6]: binds
B9: anti-La monoclonal antibody 24BG7 (antibody, V domains shown)
VH: QVQLQQSGAELARPGASVKLSCKASGYSLTNYGISWVKQRTGQGLEWIGEIYRGSGNSYYNEKFKGKASLTADKSSSTAYMQLSSLTSEDSAVYFCARGGLSFAYWGQGTLVTVSA
VL: B8 VL with D1Q, M4L, S30T, S76T, S91I, A99G, L105I
notes: variable heavy chain of 24BG7; variable light chain of 24BG7; IgG1; Vl kk4, JK2; From the human La transgenic mouse; also called Group 1 anti-La mab (24BG7); source: hybridoma cell culture supernatant

- binding result [8]: binds
B10: IgM type anti-La monoclonal antibody 16C (antibody, V domains shown)
VH: EVKLEESGPELVKPGSSVKISCKASGYTFTDYNMDWVKQSHGKSLEWIGAINPNNGGTSYNQKFKGKATLTVDKSSSTAYMELRSLTSEDSAVYYCARRDGGSYEWAMDYWGQGTSVTVSS
VL: DIVLTQSPASLSMAIGEKVTIRCITSTDIDDDMNWYQQKPGEPPKLLISEGNTLRPGVPSRFSSSGYGTDFVFTIENMLSEDVADYYCLQSDNLPLTFGGGTKLEIK
notes: variable heavy chain of 16C; variable light chain of 16C; IgM; Vl bt20, JK2; From the human La transgenic mouse; called polyreactive; also called anti-La mab (16C); source: hybridoma cell culture supernatant

Second part, the binder before the results:

B1: anti-La monoclonal antibody 27E (antibody, V domains shown)
VH: EVQLQESGAELARPGASVKLSCKASGYSFRSYGINWVKQRTGQGLEWIGEIYPGSGTTFYNEKFRGKATLTADKSSSTAYMQLKSLTSEDSAVYFCARHGGYPFYFDYWGQGTTLTVSS
VL: DIVMTQSPAIMSASPGEKVTISCSASSSVSYMYWYQQKPGSSPKPWIYRTSNLASGVPARFSGSGSGTSYSLTISSMEAEDAATYYCQQYHSYPRTFGGGTKLEIK
notes: variable heavy chain of 27E; variable light chain of 27E; IgG2b; Vl aa4, JK1; From the human La transgenic mouse; also called Group 2 anti-La mab (27E); source: hybridoma cell culture supernatant
- binding result [1]: binds
- binding result [2]: binds
- binding result [3]: binds

B2: anti-La monoclonal antibody 32A (antibody, V domains shown)
VH: EVQLQQSGAELARPGASVKLSCKASGYTFTTYGLTWVKQRTGQGLEWIGEIFPGSGTTFYNEKFNDKATLTADKSSSTAYMQLTSLTSEDSAVYFCARYSNYPYYFDYWGQGTTLTVSS
VL: B1 VL with D1Q, M4L, A9T, A59D
notes: variable heavy chain of 32A; variable light chain of 32A; IgG1; Vl aa4, JK1; From the human La transgenic mouse; also called Group 2 anti-La mab (32A); source: hybridoma cell culture supernatant
- binding result [1]: binds

B3: anti-La monoclonal antibody 2F9 (antibody, V domains shown)
VH: EVQLQESGPGILQPSQTLSLTCSFSGFSLSTSGMGVSWIRQPSGKGLEWLAHIYWDDDKGYNPSLKSRLTISKDTSRNQVFLKITSVDTADTATYYCARGDVEFDYWGQGTTLTVSS
VL: DIVLTQSTASLAVSLGQRATISCRASESVDSYGNSFMHWYQQKPGQPPKLLIYRASNLESGIPARFSGSGSRTDFTLTINPVEADDVATYYCQQSNEDPPTFGSGTKLEIK
notes: variable heavy chain of 2F9; variable light chain of 2F9; IgG1; Vl 21-5, JK4; From the human La transgenic mouse; also called Group 2 anti-La mab (2F9); source: hybridoma cell culture supernatant
- binding result [1]: binds

B4: anti-La monoclonal antibody 312B (antibody, V domains shown)
VH: QVKLQESGAELMKPGSSVKFSCKAAGYTFTDYWIEWLKQRPGHGLEWIGEILPGSVSIKYNEKFKGKATFTADTSSNTAYMQLSSLTSEDSAVYYCARSRSIYDGYFYYWGQGTTLTVSS
VL: B6 VL with Q3V, P8T, S31T, K74R
notes: IgG1; Vl 12-44, JK2; From the human La transgenic mouse; source: hybridoma cell culture supernatant
- binding result [1]: binds
- binding result [2]: binds
- binding result [3]: binds
- binding result [4]: binds

B5: recombinant antibody based on the mature 312B sequence (scFv fused on a human IgG4 hinge and Fc) (Fc fusion, mouse)
VH: B4 VH
VL: B6 VL with Q3V, P8T, S31T, K74R
notes: as for B6
- binding result [5]: binds

B7: anti-La monoclonal antibody 22A (antibody, V domains shown)
VH: QVKLEESGPELVKPGAPVKISCKTSGYTFTNYYIYWVKQRPGQGLEWIGYIYPGNGGTAYNQKFKDKATLTADNPSNTAYMQLSSLTSEDSAVYLCARRGALGYYFDYWGQGTTLTVSS
VL: QIVLTQSPAIMSASPGEKVTMTCSASSSVSYMYWYQQKSGTSPKRWIYDTSKLASGVPARFSGSGSGTSYSLTISSMEAEDAATYYCQQWSSNPQFGTGTKLEVK
notes: variable heavy chain of 22A; variable light chain of 22A; IgG1; Vl kk4, JK5; From the human La transgenic mouse; also called Group 1 anti-La mab (22A); source: hybridoma cell culture supernatant
- binding result [6]: binds
